We go through one substance from patent US20210263044A1.

The test addresses Protein G bound to porous resin beads (Pierce Biotechnology, Protein G UltraLink resin) (UniProt P19909). In words: 100 ug IgG mixed with 10 uL Protein G resin bead suspension; supernatant analysed by SDS-PAGE, band pixels.

human immunoglobulin G (IgG) (antibody) yielded a residual amount of antibody (unbound IgG remaining in the supernatant) of 3%.
